Data taken from IntAct's records for PubMed 32296183.

B1: Ceroid-lipofuscinosis neuronal protein 6 (Homo sapiens), Q9NWW5 (parent)
chain: MEATRRRQHLGATGGPGAQLGASFLQARHGSVSADEAARTAPFHLDLWFYFTLQNWVLDFGRPIAMLVFPLEWFPLNKPSVGDYFHMAYNVITPFLLLKLIERSPRTLPRSITYVSIIIFIMGASIHLVGDSVNHRLLFSGYQHHLSVRENPIIKNLKPETLIDSFELLYYYDEYLGHCMWYIPFFLILFMYFSGCFTASKAESLIPGPALLLVAPSGLYYWYLVTEGQIFILFIFTFFAMLALVLHQKRKRLFLDSNGLFLFSSFALTLLLVALWVAWLWNDPVLRKKYPGVIYVPEPWAFYTLHVSSRH
B2: Succinate--CoA ligase [ADP-forming] subunit beta, mitochondrial (Homo sapiens), Q9P2R7 (parent)
chain: MAASMFYGRLVAVATLRNHRPRTAQRAAAQVLGSSGLFNNHGLQVQQQQQRNLSLHEYMSMELLQEAGVSVPKGYVAKSPDEAYAIAKKLGSKDVVIKAQVLAGGRGKGTFESGLKGGVKIVFSPEEAKAVSSQMIGKKLFTKQTGEKGRICNQVLVCERKYPRREYYFAITMERSFQGPVLIGSSHGGVNIEDVAAESPEAIIKEPIDIEEGIKKEQALQLAQKMGFPPNIVESAAENMVKLYSLFLKYDATMIEINPMVEDSDGAVLCMDAKINFDSNSAYRQKKIFDLQDWTQEDERDKDAAKANLNYIGLDGNIGCLVNGAGLAMATMDIIKLHGGTPANFLDVGGGATVHQVTEAFKLITSDKKVLAILVNIFGGIMRCDVIAQGIVMAVKDLEIKIPVVVRLQGTRVDDAKALIADSGLKILACDDLDEAARMVVKLSEIVTLAKQAHVDVKFQLPI
partner: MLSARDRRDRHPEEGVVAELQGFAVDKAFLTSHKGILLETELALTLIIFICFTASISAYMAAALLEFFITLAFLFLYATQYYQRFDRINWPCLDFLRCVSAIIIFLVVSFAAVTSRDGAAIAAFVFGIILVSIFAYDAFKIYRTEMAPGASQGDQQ

Variants of: B1
Settings: with stx1a_human STX1A

| Variant | effect of a mutation on the interaction |
| --- | --- |
| MEATRRRQHLGATGGPGAQLGASFLQARHGSVSADEAARTAPFHLDLWFYFTLQNWVLDFGRPIAMLVFPLEWFPLNKPSVGDYFHMAYNVITPFLLLKLIERSPRTLPRSITYVSIIIFIMDASIHLVGDSVNHRLLFSGYQHHLSVRENPIIKNLKPETLIDSFELLYYYDEYLGHCMWYIPFFLILFMYFSGCFTASKAESLIPGPALLLVAPSGLYYWYLVTEGQIFILFIFTFFAMLALVLHQKRKRLFLDSNGLFLFSSFALTLLLVALWVAWLWNDPVLRKKYPGVIYVPEPWAFYTLHVSSRH [G123D] | with no effect |

Variants of: B1
Settings: with ar13b_human ARL13B

| Variant | effect of a mutation on the interaction |
| --- | --- |
| MEATRRRQHLGATGGPGAQLGASFLQARHGSVSADEAARTAPFHLDLWFYFTLQNWVLDFGRPIAMLVFPLEWFPLNKPSVGDYFHMAYNVITPFLLLKLIERSPRTLPRSITYVSIIIFIMDASIHLVGDSVNHRLLFSGYQHHLSVRENPIIKNLKPETLIDSFELLYYYDEYLGHCMWYIPFFLILFMYFSGCFTASKAESLIPGPALLLVAPSGLYYWYLVTEGQIFILFIFTFFAMLALVLHQKRKRLFLDSNGLFLFSSFALTLLLVALWVAWLWNDPVLRKKYPGVIYVPEPWAFYTLHVSSRH [G123D] | with no effect |

Variants of: B1
Settings: with cxa8_human GJA8, P48165
cxa8_human GJA8, P48165, sequence (P48165 whole entry): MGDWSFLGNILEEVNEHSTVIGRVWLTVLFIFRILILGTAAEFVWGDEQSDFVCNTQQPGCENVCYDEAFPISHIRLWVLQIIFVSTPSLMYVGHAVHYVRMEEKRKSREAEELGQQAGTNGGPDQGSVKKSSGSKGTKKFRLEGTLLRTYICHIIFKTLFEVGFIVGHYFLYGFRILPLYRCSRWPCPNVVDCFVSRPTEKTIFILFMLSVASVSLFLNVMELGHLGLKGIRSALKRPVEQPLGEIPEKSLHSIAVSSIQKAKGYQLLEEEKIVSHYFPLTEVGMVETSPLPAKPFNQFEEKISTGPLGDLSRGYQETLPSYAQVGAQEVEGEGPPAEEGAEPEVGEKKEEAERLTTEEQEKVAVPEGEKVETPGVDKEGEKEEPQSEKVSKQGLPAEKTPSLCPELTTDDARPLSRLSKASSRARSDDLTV

| Variant | effect of a mutation on the interaction |
| --- | --- |
| MEATRRRQHLGATGGPGAQLGASFLQARHGSVSADEAARTAPFHLDLWFYFTLQNWVLDFGRPIAMLVFPLEWFPLNKPSVGDYFHMAYNVITPFLLLKLIERSPRTLPRSITYVSIIIFIMDASIHLVGDSVNHRLLFSGYQHHLSVRENPIIKNLKPETLIDSFELLYYYDEYLGHCMWYIPFFLILFMYFSGCFTASKAESLIPGPALLLVAPSGLYYWYLVTEGQIFILFIFTFFAMLALVLHQKRKRLFLDSNGLFLFSSFALTLLLVALWVAWLWNDPVLRKKYPGVIYVPEPWAFYTLHVSSRH [G123D] | with no effect |

Variants of: B1
Settings: with ki2l3_human KIR2DL3, P43628
ki2l3_human KIR2DL3, P43628, sequence (P43628 whole entry): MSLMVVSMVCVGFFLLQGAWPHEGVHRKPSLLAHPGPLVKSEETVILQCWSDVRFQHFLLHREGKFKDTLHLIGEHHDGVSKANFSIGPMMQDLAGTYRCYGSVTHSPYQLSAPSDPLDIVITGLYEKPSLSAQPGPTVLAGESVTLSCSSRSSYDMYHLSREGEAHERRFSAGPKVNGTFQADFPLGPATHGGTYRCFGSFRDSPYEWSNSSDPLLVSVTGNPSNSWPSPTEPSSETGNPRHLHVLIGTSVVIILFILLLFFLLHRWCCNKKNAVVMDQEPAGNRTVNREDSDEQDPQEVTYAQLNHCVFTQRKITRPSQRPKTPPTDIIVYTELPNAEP

| Variant | effect of a mutation on the interaction |
| --- | --- |
| MEATRRRQHLGATGGPGAQLGASFLQARHGSVSADEAARTAPFHLDLWFYFTLQNWVLDFGRPIAMLVFPLEWFPLNKPSVGDYFHMAYNVITPFLLLKLIERSPRTLPRSITYVSIIIFIMDASIHLVGDSVNHRLLFSGYQHHLSVRENPIIKNLKPETLIDSFELLYYYDEYLGHCMWYIPFFLILFMYFSGCFTASKAESLIPGPALLLVAPSGLYYWYLVTEGQIFILFIFTFFAMLALVLHQKRKRLFLDSNGLFLFSSFALTLLLVALWVAWLWNDPVLRKKYPGVIYVPEPWAFYTLHVSSRH [G123D] | with no effect |

Variants of: B1
Settings: with lrc25_human LRRC25, Q8N386
lrc25_human LRRC25, Q8N386, sequence (Q8N386 whole entry): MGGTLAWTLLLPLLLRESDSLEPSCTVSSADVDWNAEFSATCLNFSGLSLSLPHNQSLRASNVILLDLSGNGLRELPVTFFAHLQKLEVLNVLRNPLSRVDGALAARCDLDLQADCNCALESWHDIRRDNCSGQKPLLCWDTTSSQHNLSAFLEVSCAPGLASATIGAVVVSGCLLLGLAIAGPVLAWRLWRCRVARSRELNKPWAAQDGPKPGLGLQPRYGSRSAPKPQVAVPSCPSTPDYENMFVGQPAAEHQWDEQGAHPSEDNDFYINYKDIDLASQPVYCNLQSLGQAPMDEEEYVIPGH

| Variant | effect of a mutation on the interaction |
| --- | --- |
| MEATRRRQHLGATGGPGAQLGASFLQARHGSVSADEAARTAPFHLDLWFYFTLQNWVLDFGRPIAMLVFPLEWFPLNKPSVGDYFHMAYNVITPFLLLKLIERSPRTLPRSITYVSIIIFIMDASIHLVGDSVNHRLLFSGYQHHLSVRENPIIKNLKPETLIDSFELLYYYDEYLGHCMWYIPFFLILFMYFSGCFTASKAESLIPGPALLLVAPSGLYYWYLVTEGQIFILFIFTFFAMLALVLHQKRKRLFLDSNGLFLFSSFALTLLLVALWVAWLWNDPVLRKKYPGVIYVPEPWAFYTLHVSSRH [G123D] | with no effect |

Variants of: B1
Settings: with tm139_human TMEM139, Q8IV31
tm139_human TMEM139, Q8IV31, sequence (Q8IV31 whole entry): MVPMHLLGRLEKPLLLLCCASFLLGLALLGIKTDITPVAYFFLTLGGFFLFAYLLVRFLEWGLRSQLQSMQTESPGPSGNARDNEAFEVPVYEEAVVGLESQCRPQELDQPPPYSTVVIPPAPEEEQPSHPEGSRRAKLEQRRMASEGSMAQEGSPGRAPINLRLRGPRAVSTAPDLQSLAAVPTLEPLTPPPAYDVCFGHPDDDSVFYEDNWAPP

| Variant | effect of a mutation on the interaction |
| --- | --- |
| MEATRRRQHLGATGGPGAQLGASFLQARHGSVSADEAARTAPFHLDLWFYFTLQNWVLDFGRPIAMLVFPLEWFPLNKPSVGDYFHMAYNVITPFLLLKLIERSPRTLPRSITYVSIIIFIMDASIHLVGDSVNHRLLFSGYQHHLSVRENPIIKNLKPETLIDSFELLYYYDEYLGHCMWYIPFFLILFMYFSGCFTASKAESLIPGPALLLVAPSGLYYWYLVTEGQIFILFIFTFFAMLALVLHQKRKRLFLDSNGLFLFSSFALTLLLVALWVAWLWNDPVLRKKYPGVIYVPEPWAFYTLHVSSRH [G123D] | with no effect |

Variants of: B2
Settings: with CMTM5, Q96DZ9-2

| Variant | effect of a mutation on the interaction |
| --- | --- |
| MAASMFYGRLVAVATLRNHRPRTAQRAAAQVLGSSGLFNNHGLQVQQQQQRNLSLHEYMSMELLQEAGVSVPKGYVAKSPDEAYAIAKKLGSKDVVIKAQVLAGGRGKGTFESGLKGRVKIVFSPEEAKAVSSQMIGKKLFTKQTGEKGRICNQVLVCERKYPRREYYFAITMERSFQGPVLIGSSHGGVNIEDVAAESPEAIIKEPIDIEEGIKKEQALQLAQKMGFPPNIVESAAENMVKLYSLFLKYDATMIEINPMVEDSDGAVLCMDAKINFDSNSAYRQKKIFDLQDWTQEDERDKDAAKANLNYIGLDGNIGCLVNGAGLAMATMDIIKLHGGTPANFLDVGGGATVHQVTEAFKLITSDKKVLAILVNIFGGIMRCDVIAQGIVMAVKDLEIKIPVVVRLQGTRVDDAKALIADSGLKILACDDLDEAARMVVKLSEIVTLAKQAHVDVKFQLPI [G118R] | disrupting interaction strength |
| MAASMFYGRLVAVATLRNHRPRTAQRAAAQVLGSSGLFNNHGLQVQQQQQRNLSLHEYMSMELLQEAGVSVPKGYVAKSPDEAYAIAKKLGSKDVVIKAQVLAGGRGKGTFESGLKGGVKIVFSPEEAKAVSSQMIGKKLFTKQTGEKGRICNQVLVCERKYPRREYYFAITMERSFQGPVLIGSSHGGVNIEDVAAESPEAIIKEPIDIEEGIKKEQALQLAQKMGFPPNIVESAAENMVKLYSLFLKYNATMIEINPMVEDSDGAVLCMDAKINFDSNSAYRQKKIFDLQDWTQEDERDKDAAKANLNYIGLDGNIGCLVNGAGLAMATMDIIKLHGGTPANFLDVGGGATVHQVTEAFKLITSDKKVLAILVNIFGGIMRCDVIAQGIVMAVKDLEIKIPVVVRLQGTRVDDAKALIADSGLKILACDDLDEAARMVVKLSEIVTLAKQAHVDVKFQLPI [D251N] | disrupting interaction strength |
